Measurements taken from patent US20220281980A1 (Bristol-Myers Squibb, published 2022).
Positions count from the first letter of the chain named.

T1: recombinant soluble human MICA*008 antigen (human, UniProt Q29983 24-307)
T1 construct: also called huIMICA-his allele *008; recombinant soluble MICA (allele 8)
T1 chain: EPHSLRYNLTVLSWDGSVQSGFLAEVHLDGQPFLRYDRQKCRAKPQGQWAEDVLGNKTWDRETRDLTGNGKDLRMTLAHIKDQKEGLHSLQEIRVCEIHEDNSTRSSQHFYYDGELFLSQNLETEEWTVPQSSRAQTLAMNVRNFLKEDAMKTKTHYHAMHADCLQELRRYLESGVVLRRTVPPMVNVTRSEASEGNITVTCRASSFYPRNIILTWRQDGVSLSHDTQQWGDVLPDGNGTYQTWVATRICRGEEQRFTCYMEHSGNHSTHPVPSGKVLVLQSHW

T2: recombinant soluble human MICA*002 antigen (human, UniProt Q29983 24-307)
T2 construct: also called huIMICA-his allele *002
T2 chain: T1 chain with W14G, Y36C, V129M, E173K, S206G, R210W, I213T, T215S, R251Q

T3: recombinant soluble human MICA*004 antigen (human, UniProt Q29983 24-307)
T3 construct: also called huIMICA-his allele *004
T3 chain: T1 chain with L122V, G175S, T181R, I213T, T215S, W216T, R251Q

T4: recombinant soluble human MICA*009 antigen (human, UniProt Q29983 24-307)
T4 construct: also called huIMICA-his allele *009
T4 chain: T1 chain with G175S, I213T, R251Q

T5: human MICA*002 expressed on CHO cells (human, UniProt Q29983 24-382)
T5 construct: also called MICA allele 002
T5 chain: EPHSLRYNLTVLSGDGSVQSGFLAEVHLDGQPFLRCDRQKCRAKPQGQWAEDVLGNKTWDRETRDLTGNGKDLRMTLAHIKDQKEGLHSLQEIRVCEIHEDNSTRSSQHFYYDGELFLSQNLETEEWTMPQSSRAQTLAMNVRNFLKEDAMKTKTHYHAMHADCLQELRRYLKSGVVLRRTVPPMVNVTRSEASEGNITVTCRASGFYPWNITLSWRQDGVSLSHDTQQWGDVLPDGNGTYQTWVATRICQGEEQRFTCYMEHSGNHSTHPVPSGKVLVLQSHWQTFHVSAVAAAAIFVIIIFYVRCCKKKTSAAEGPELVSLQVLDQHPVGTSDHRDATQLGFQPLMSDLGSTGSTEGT

B1: MICA.36 (antibody, V domains shown)
VH: QVQLVESGGGVVQPGRSLRLSCAASGFTFSNYAMHWVRQAPGEGLEWVALIWYDGSNKFYGDSVKGRFTISRDNSKNTLYLQMNSLSAEDTAVYYCAREGSGHYWGQGTLVTVSS
VL: AIQLTQSPSSLSASVGDRVTITCRASQGISSALAWYQQKPGKVPKSLIYDASSLESGVPSRFSGSGSGTDFTLTISSLQPEDFATYYCQQFNSYPITFGQGTRLEIK
notes: it says that the name implies no specific constant region; Radioiodinated in the Scatchard assay; also called MICA.36 antibody
B2: 19G6 (antibody, V domains shown)
VH: B1 VH
VL: B1 VL
notes: Hybridoma antibody from human IgG transgenic mice, parent of MICA.36; also called 19G6 mAb; hybridoma 19G6
B3: MICA.2 (antibody, human IgG1, kappa, V domains shown)
VH: EVQLVESGGGLVQPGGSLRLSCAASGFTFSTYSMNWVRQAPGKGLEWVSYISYRSRTIYYADSVKGRFTISRDNARNSLYLQMNSLRDEDTAVYYCARWGYGSGGFDYWGQGTLVTVSS
VL: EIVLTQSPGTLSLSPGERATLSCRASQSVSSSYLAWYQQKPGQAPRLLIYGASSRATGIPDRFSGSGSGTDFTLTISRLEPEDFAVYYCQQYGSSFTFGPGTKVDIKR
notes: 3F5 variable regions on human IgG1f and human kappa constant regions, made in CHO-S cells; also called 3F5; recombinant antibody of 3F5
B4: 24G11 (antibody, V domains shown)
VH: EVQLVQSGAEVKKPGESLKISCKGSGYSFTNYWIGWVRQMPGKGLEWLGIIHPGDSYTRYSPSFQGQVTISADKSISTAYLQWSSLKASDTAIYYCAREGIAATPFDYWGQGTLVTVSS
VL: EIVLTQSPATLSLSPGERATLSCRASQSVSSYLAWFQQKPGQAPRLLIYDASNRATGIPARFSGSGSGTDFTLTISSLEPEDFAVYYCQQRSNWPPTFGQGTKVEIK
notes: also called MICA.54; 24G11 (MICA.54)
B5: 71C2 (antibody, V domains shown)
VH: EVQLVESGGGLVQPGRSLRLSCAASGFTFNNYAMHWVRQAPGKGLEWVSGITWNSDSIGYADSVKGRFTISRDNAKNSLYLQMNSLRAEDTALYYCAKDSVLLWFGGMDVWGQGTTVTVSS
VL: not shown
notes: Hybridoma antibody

Legend:
[1] = target: T1, recombinant soluble human MICA*008 …; experiment: BLI (Octet) sandwich binning on soluble MICA allele 8, row antibody captured; competitor (second antibody): MICA.38
Protocol: (§1) The binning experiments were performed on an Octet HTX instrument at 25° C. in HEPES buffered saline (10 mM HEPES pH 7.4, 150 mM NaCl, 0.05% v/v surfactant P20, and 1 mg/mL BSA). Anti-MICA/B antibodies and NKG2D-mFc were captured on anti-Fc tips and remaining capture sites were blocked with an excess of negative control IgG. Recombinant soluble MICA (allele 8) was bound and subsequent binding (“sandwiching”) of anti-MICA/B antibodies was tested.

[2] = target: T1, recombinant soluble human MICA*008 …; experiment: BLI (Octet) sandwich binning on soluble MICA allele 8, row antibody captured; competitor (second antibody): MICA.36
Protocol: as §1

[3] = target: T2, recombinant soluble human MICA*002 …; experiment: SPR (Biacore 3000), antibody captured on Protein G chip, huMICA-his analyte
Protocol: (§2) Kinetics and affinity of anti-MICA/B antibodies MICA.2, 19G6, 16A5, and 71C2 towards human MICA alleles (huIMICA-his allele *002, *004, *008, and *009) were also determined on a BIACORE 3000® instrument using the following conditions: [0571] Running Buffer: HES-EP running buffer [0572] Chip: CM5 Protein G Chip Fc1: Blank. Fc2-4: ˜200Rus [0573] Ab: 5 ug/mL, 10 uL @ 10 uL/min [0574] Ag binding: 5 min association, 7 min dissociation @ 25 uL/min, [0575] Regeneration: Glycine 1.7, 10 uL @ 100 uL/min followed by 60s wash by HES-EP

[4] = target: T3, recombinant soluble human MICA*004 …; experiment: as above
Protocol: as §2

[5] = target: T4, recombinant soluble human MICA*009 …; experiment: as above
Protocol: as §2

[6] = target: T1, recombinant soluble human MICA*008 …; experiment: as above
Protocol: as §2

[7] = target: T6, cynomolgus monkey MICA/B clone #4 expressed on CHO cells (cynomolgus monkey); experiment: flow cytometry, transfected CHO cells
T6 construct: whole, on cells; also called cyno#4; CHO-cyno MICA clone #4

[8] = target: T5, human MICA*002 expressed on CHO cells; experiment: flow cytometry, transfected CHO cells

Binder	simultaneous binding (0 = no, 1 = yes) [1]	simultaneous binding (0 = no, 1 = yes) [2]	Kd [3]	Kd [4]	Kd [5]	Kd [6]	EC50 [7]	EC50 [8]
B1	1	0						
B2			219 nM	9.78 nM	13.7 nM	5.23 nM	1.08 nM	152 nM
B3	0	1	27.5 nM	54.6 nM	61.5 nM	40.5 nM	1.97 nM	5.37 nM
B4	1	0					394 nM	1060 nM
B5			3010 nM	262 nM	1400 nM	39.9 nM	23.4 nM	264 nM
